{"source": "paper PMC6205950", "about": "“4-Chlorophenol Oxidation Depends on the Activation of an AraC-Type Transcriptional Regulator, CphR, in Rhodococcus sp. Strain YH-5B” (Frontiers in Microbiology, 2018)", "test_in_all_cases": "purified protein", "key": {"[1]": {"system": "Oc1ccccc1", "details": "200 μM NADH, 25 μM FAD, 50 mM phosphate pH 7.5"}, "[2]": {"system": "O=[N+]([O-])c1cccc(O)c1", "details": "200 μM NADH, 25 μM FAD, 50 mM phosphate pH 7.5"}, "[3]": {"system": "Oc1ccc(Cl)cc1", "details": "200 μM NADH, 25 μM FAD, 50 mM phosphate pH 7.5, text prints 8.7 ± 1.1"}}}
{"substance": "two-component 4-CP monooxygenase (H6-CphA1 and H6-CphA2) (Rhodococcus sp. (in: high G+C Gram-positive bacteria))", "values": [{"measurement": "Km", "setting": "[1]", "value": "9.6 ± 0.9", "unit": "µM"}, {"measurement": "Km", "setting": "[2]", "value": "63.2 ± 7.7", "unit": "µM"}, {"measurement": "Km", "setting": "[3]", "value": "8.7 ± 1.2", "unit": "µM"}, {"measurement": "kcat", "setting": "[3]", "value": "0.0103 ± 0.00067", "unit": "s⁻¹"}]}
